The values below come from a protein production outcome set (Wang et al. 2014).

This data set can be described thus: label from the status in PepcDB records.
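Also: failed if final PepcDB status was selected cloned or expressed and not failed if soluble or beyond.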

As for “MPAIQSELDVNGEDFARNREAMLAAVAGFRELEQKVLDKAAEARPKFEKRGQLLPRERLALLLDPGAPFLELSSLAGYKLHDDKDGTQAGGGIIAGIGYIAGVRCLVSASNSAIKGGTISPTGLKKTLRLQQIAMENKLPVVTLTESGGANLNYAAEIFVEGARGFANQARISAMGIPQVTVVHGSSTAGGAYQPGLSDYVVVVRGKAKMFLAGPPLLKAATGEIASDEELGGAELHAQVAGTAEYLAENDADGVRLAREIVGMLPWNAQLPARPARSWREPLYPVEELLGVVPADPKKPYDVREIVARIADGSEFLDFKNEFDGQTVCGHLRIEGHACGLIGNNGPITPQGAAKAAQFIQLCEQSNTPLLFLHNTTGFMVGTESERQGVIKHGSKMIQAVANARVPKLTLVVGGSYGAGNYAMCGRGLDPRFIFAWPNSRTAVMGGAQAGKVLRIVTEEKHAKEGKEADPKMLEMLETVTAQKLDSQSTALYGTASLWDDGLVDPRDSRRLLGYLLDICAEAEARPLKGNSFGVAR”, the protein production result was “not failed”. As for “MPAKDVQICPIAVDTTVFRSRTWDRLKFEIEYGLQRGTTANSYLISADKIALFDPPGESFTDNFVGTLIQRLDLNSLDYVILGHVNANRAHTLKLLLSLAPQATIICSNPAAQNLEKLLADAEVNNPIQVMKGNDHLDLGRGHELTFIPTPSPRYPGQLCTYDPRTEILFTDKLFGAHVCGDQVFDEGWTIYQEDRRYYFDCLLAPAAAQVSAALNKLEAYPAQTYAPSHGPLVRYGLRELTRNYQQWLSEQQAQALEHHHHHH”, the protein production result was “failed”. The value for “MPALSGPQYLGEGLKLIMRPGLRLFVLIPLTLNLLVFALLIGFAMQQFSHWVDLLMPSLPDWLSFLQYIVWPLFVLLVLVIVFFTFTMVANIISAPFNGFLSEKVEVVVRGRDDFPPFSWAELLAMIPRTMGREMRKLAYFLPRALVLLVLSFVPGVNLIATPLWILFGIWMMAVQYIDYPADNHKLGWNEMLAWLRSKRWACMGFGGVTYLALLIPLVNLVMMPAAVAGATLFWVREEGERALVK” was “failed”. On to “MPANPRILETMSQLFVSFPHCATLGFEYVGTDGRKPTLKLQWREDLVGNPATGILHGGVITSLVDTCSAIAVTAHLPELETIATLDLRIDYLKSATPGKAIHCTAECYRLASQIAFTRAVCYHDNPADPIAHGVATFMRESSLEHHHHHH”, for which the protein production entry is recorded as “failed”. The value for “MPAPRYKSGSSKKVYRKAPGNSSIVHYRRKKQSKAVCGACGALLNGVPRGRAVEITKLAKTEKRPERPFGGNLCPKCVKKMMVAKARNFLEHHHHHH” was “not failed”. As for “MPDITISWVAAILGLVVAIVLILKKFNPVYSLFFGAIVGCLIGGASLSDTVAVLLNGTQSIMGTAIRVLAAGMLAGVMMESGAAESIANAIVQKLGEKKAILSLALSTMVITAVGVFIPVAVLIVAPIALSVGKSTGISKLSLLIALSGGGKAGNIISPNPNTIAAANGFDLPLSDVMIAGFIPAVFGLITAVVLANIMRNKGSMVKETDLVEEQTKELLPLKKALIAPVLAIVLLLLNPIGAVLNISFIKSLNIDALYILPFASVVGTIAIGQTKQLAFYASSGLKRVTDTVLILIGAGAIAGLISVSDLSTQIVHLISVMGISGTFLAPISGILMGLAVGSTSTAVILATGSFGPAILDMGTSSLSAAVMVHTGATVIDSVPQGNYFHITAQSMNMTIKERIRVIPYEMCVGGVMTIVATILYGFILN”, the entry is “failed”; as for “MPDLMHSELTMSGPEQSLLAGALLGAGLPADAHRHLELAGRDYQSEALAEQHLREAHLLAPDHAAVLIGLYRFYFYKGRLGEALEVAQACLCKAARDNGLASDWRKVRRGDAEFSSYSAVLPRFYLFALKAYAYLQMRLGQLDEGHAAVEKLLELDPTDKVGAAVLLDVWRRIGQDDDD”, “failed”; as for “MPDPAAPGTLRPGGRTARIREAVLLAAGDALAADGFDALDLGEIARRAGVGKTTVYRRWGTPGGLAADLLADMAEQSLPRADTGALEEDLRANARLVVRTLDDPRQGRLFRALIAASLCNEQAAEALHRFYAVRVDEWAGCVRDAVARGEVPDGTDPHGVVAAVSAPLYYALLNTGRSLTEADADRAARAASTAARAGVWVTG”, “not failed”. The value for “MPDPQISAIICTHNRDTYLGAAIDSLLVQDFAGEFEVVVIDNGSSDRTREVVEQRSSDSRLKYVFEPTIGLSVARNTGAKFASAEILAYLDDDAVASTHWLQVLYAAYQNYPQLAIAGGKVTLLWPPDTQPPRWLSSGLAGNLGAYDLGDKVVYIQQPGLTPRGLNYSIRRTFLEEIGGFDPHLGRVGKNLLSNEELQMTELALTGGWQVAYLPEALVAHNVAPERLNRSWFLNRGWWQGISECYREQLSGKAGVGQLSRGGERLARGLYKAFRYFSNPAERFDNLVYAYGQIGYLNAVLQGLLFTANNKGSQLEHHHHHH” was “not failed”; that for “MPDPRGGAQGGGVSGQEGPTLISSVQRAFRLMEAVGAHESGVPAKQLARETGLALGTTYHLLRTMVHDGYVRKLEDGTFVLGERLGALHAGSRDQTALSRVRPTLTELRDDLSAAAYLTLYEEGEIRVAEIVDGPKAPRVDLWVGFEDAGHATALGKSVLRELDAEARADYLSRHALNDLTPRTITYRAQLLRSLDAAPRGPAVTDLEEYRLGTACVAVPVRRGDTIGSLGISVDINRTACLDDAVTTLLATAERVSRGLSLTI” was “failed”.

Turning to “MPDSPTLLDLFAEDIGHANQLLQLVDEEFQALERRELPVLQQLLGAKQPLMQQLERNGRARAEILREAGVSLDREGLARYARERADGAELLARGDELGELLERCQQANLRNGRIIRANQASTGSLLNILRGQDAPSLYDSRGGTASSSRQRPLSKA”, the protein production entry is recorded as “not failed”. As for “MPDTPLLASSQPAAGRRALGLSARLAFAALAGGGGLAWIDRGDTALWLIAPALLWLQVLLTLAGVLALAGGSRLPGALIVALSAGLLVPPLTVEMRLLGFFLAAPPPDQSILTTAQYTLAGALAAGALAWILARRRFGRPPCSWTMLDCGGPGAEIDMDAALASLSAETLRRRDRAYIDAPPPLPFAPRGPPRPPPPTLGGPRLKRMPAGLGGAILCLESDDHTLRVHTTQGSGTLAGRLGDAALDLGESAGLRVHRSWWVAREAVSAIERDGRRMRLILLNGMDVPVSRAHQPKVLAGPWPNLRVS”, the protein production entry was “failed”. The value for “MPDVLPHPDGPDSTARPWCSVVIPVLHEAVTIAAQVAHVRHVAARCGMEVEVVVADGAKERDTLAALPEGCCTAVASCPGRARQMNAGAGKARGETLLFLHADTHLPPEAFTLLRRARQAGIRAGAFRLGIAATGLWFRLVERLACWRNRLVRTPYGDQAQFFDAALFRAVGGYPDQPLMEDVEVMRRLRKAGERIVILPGRVETSARRWFVEGPLRCTLRNLCLRLLYALGVPAHALSRWYRAHKERP” was “failed”; that for “MPDYDLIAILGPTASGKTPFAAALAAELNTEIISADSRQIYRGMDLGTGKDLEDYTINGRQIPYHLIDIADPGYKYNVFEYQRDFLTAYETIKQKGCLPVLCGGTGLYLESVLKGYRLIPVPENQELRVRLAEKSLEELTAILSSYKTLHNSTDVDTVKRAIRAIEIEEYYAKTPIEEREFPQLNSLIIGVDIDRELRREKITRRLKQRLDDGMVEEVRRLLAEGIQPDDLIYYGLEYKYLTLYAIGKMTYDEMFTGLETAIHQFAKRQMTWFRGMERRGFTIHWVDASLPMEEKINFVKQKLKEFLEHHHHHH” was “not failed”. “MPEAPGDTPLALDLLRRLRRALGAAGLPELEAWDLLAAATGWPRKALYGRLTSPLPQEALDRAEALLKRRLQGYPLQYLVGEVEFFGLPLRVEEGVLIPRPETEGLVELALGLPLPPAPRILDVGTGTGAIALALKRALPEAEVYATEVDPKALALARENAERLGLAVVFLPAPLTGGLKDLDLVVSNPPYLPEAYREKAPRELGYESPLALYAGPEGLSVARPLAEEARRSLKPGGYLLLELAPENVHLLARELREKGWKEVAVLPDLAGRDRYLRARRPPEEAEGEEGRLHRPHLPQSLHPHPDHPGPPPEEEEALGQVRLRGEAGVLRGHALLQKALPDPFPHLQEDGPGPGLPRVEEGGAGENLPRGPQALFRVKAGPDEEDAVLVPRPLQDGKPRALGPAEKPHALEAQEEGPPPGRLFQRHGALLRAQAHLPQVEPLAQAGEAFCELALLPLQHPGLDEEALDPPLLLGELLAHPGQGLPEPGGLLLQNLPGAP”: the protein production result is reported as “failed”.

With “MPEEALKTYEELLELEKRIGNKREIGLTLANLAIIKDELGNVEEAIKLMEEARKIFEELKDENNYLISLIDLAHFKYELGEYEEAMKLIREVLRNPVDKEIEVNARLVESEIYAGERKYKEAAISLRNALQRSEDDEELFSLVFDSLTEFLEGLFNESRLEHHHHHH”, the protein production entry was “not failed”. For the sequence “MPELKVVVSIKQVPDVDELRIDPVTNNLVREGVPAVINPPDLHAIEEAVRLKERYGAKTIVITMGPPQADSALREALAMGIDEAYLISDRAMAGADTWATSYTISKAVQKLGGADLILFGRRAVDGETEQVGPQTGKWLGLPVIGYVSEIKSLEKDKIVVTRTTEFDEEVIEAPVPVVLTILEVANKPRQPDILSLIKAKTAKVTVWNKDDIKAEPNKIGLAGSPTKVIKVQPPPKTRKAEIIDGKKDVEKAAKWFLDKIFESLKE”, the protein production result is “failed”. As for “MPELPWVEKYRPKKLSEIVNQEEAIEKVRAWIESWLHGHPPKKKALLLAGPPGSGKTTTVYALANEYNFEVIELNASDERTYEKISRYVQAAYTMDILGKRRKIIFLDEADNIEPSGAKEIAKLIDKAKNPIIMAANKYWEVPKEIREKAELVEYKRLTQRDVMNALIRILKREGITVPKEILLEIAKRSSGDLRAAINDLQTVVVGGYEDATQVLAYRDVEKTVFQALGLVFGSDNAKRAKMAMWNLDMSPDEFLLWVDENIPHLYLNPEEIAQAYDAISRADIYLGRAARTGNYSLWKYAIDMMTAGVAVAGRKRRGFVKFYPPNTLKILAESKEEREIRESIIKKIIREMHMSRLQAIETMKIIREIFENNLDLAAHFTVFLGLSEKEVEFLAGKEKAGTIWGKALALRRKLKELGIREEEKPKVEIEEEEEEEEKTEEEKEEIEEKPEEEKEEEKKEKEKPKKGKQATLFDFLKK”, the entry is “failed”. As for “MPEQQLADLSQEVAASGDSIAFAADFAVIVVVATVIGLLARQLGQPTIVAYILTGVVLGPVALDVVTQEGLVDVMAELGLGFLLFLLGLKMRFDDIREILAPITNVAIGQTVLQTALAFLVALLLGFATDEILVIALATVFGATPVIVKVLTDKDEITTLPGKIDVGVLIVQDIYLVVVLALFGAEQLGDAGEIATTLGVIFVMMSFIGLFSLASSRYLLPHLFERIANNKDVFLIVAIAWAFLFIAIAEGFDLSVEVGAFLAGLSLAQLPYSKELQDRITPITDFFILVFFASIGLQIESVGSLLTHWQEALIASVVLMVGNFWIMFYLIDREGFGPETSFLGSINMVQVSEFSLVVGALAFQQGYIGADVLGYLTLMALLTMTASTYIILYNHAIYERVAPWIRRISSGDGIDEGLPEYENHAVAIGYDEVTEKALPVLDEAFEEVVIIDRNTEHIAEIREAGEYESIFGDFRHKEVRKASNLKEAEFVLSSSVQREINEALLQETADDTPVFVEAERIADAHRLYEAGASYVVMPPHLAAEKLGEYLELYLTDQSVFHTRIQDDIEQIRRRASQATTRRRMASDTGVDLRTSGGDDD”, the entry is “failed”; as for “MPERRTVALVTLGCARNEVDSEELAGRLEADGWQLVEDAEDADVAVVNTCGFVEAAKKDSVDALLEANDLKGHGRTQAVVAVGCMAERYGKELAEALPEADGVLGFDDYTNISDRLQTILNGGIHAAHTPRDRRKLLPISPAERQSAGADVALPGHGAPEGLPEDLPEGLAPESGPRAPLRRRLDGSPVASVKLASGCDRRCSFCAIPSFRGSFISRRPSDVLGETRWLAEQGVKEVMLVSENNTSYGKDLGDIRLLETLLPELAEVDGIERVRVSYLQPAEMRPGLIDVLTSTPKIAPYFDLSFQHSAPDVLRAMRRFGDTDRFLELLDTIRSKAPQAGVRSNFIVGFPGETEADLAELERFLTGARLDAIGVFGYSDEEGTEAATYGHKLDEDVVAARLARVSRLAEELVAQRAEERVGETVHVLVESIDDEEGAVGRAEHQAPETDGQVLFTSGEGLTVGRMVEAKVVGTEGVDLVAEPLPGSLVCTEEAGR”, “failed”.
